In paper PMC10397247:
Blank lines part the entries; values can stand above or below the binder they belong to.

Assays:
Assay in all cases: two-hybrid library CCmax;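 further: natural log of median RNA to DNA barcode read ratio; higher means stronger binding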
4H716-AA = target: T1, 4H716-AA
T1 chain: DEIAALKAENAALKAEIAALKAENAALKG

4H733-AA = target: T2, 4H733-AA; settings: mean of both orientations
T2 chain: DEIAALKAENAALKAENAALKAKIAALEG

4H807-AA = target: T3, 4H807-AA; settings: mean of both orientations
T3 chain: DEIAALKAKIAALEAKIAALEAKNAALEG

APC1015-AA = target: T4, APC1015-AA; settings: mean of both orientations
T4 chain: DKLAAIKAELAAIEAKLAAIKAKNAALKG

APC1434-AA = target: T5, APC1434-AA; settings: mean of both orientations
T5 chain: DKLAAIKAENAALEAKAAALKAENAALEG

APC2237-AA = target: T6, APC2237-AA; settings: mean of both orientations
T6 chain: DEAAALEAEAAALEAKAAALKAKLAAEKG

APC232-AA = target: T7, APC232-AA; settings: mean of both orientations
T7 chain: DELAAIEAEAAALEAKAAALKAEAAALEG

APC2405-AA = target: T8, APC2405-AA; settings: mean of both orientations
T8 chain: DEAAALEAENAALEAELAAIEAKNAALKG

APC3645-AA = target: T9, APC3645-AA; settings: mean of both orientations
T9 chain: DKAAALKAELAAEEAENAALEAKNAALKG

APC4011-AA = target: T10, APC4011-AA; settings: mean of both orientations
T10 chain: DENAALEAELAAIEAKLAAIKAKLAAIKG

APC4264-AA = target: T11, APC4264-AA; settings: mean of both orientations
T11 chain: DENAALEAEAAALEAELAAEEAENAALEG

APC4436-AA = target: T12, APC4436-AA; settings: mean of both orientations
T12 chain: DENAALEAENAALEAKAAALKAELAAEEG

APC5383-AA = target: T13, APC5383-AA; settings: mean of both orientations
T13 chain: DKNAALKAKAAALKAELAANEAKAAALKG

APC6108-AA = target: T14, APC6108-AA; settings: mean of both orientations
T14 chain: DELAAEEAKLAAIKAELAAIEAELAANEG

APC7099-AA = target: T15, APC7099-AA; settings: mean of both orientations
T15 chain: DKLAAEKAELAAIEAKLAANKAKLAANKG

APC8191-AA = target: T16, APC8191-AA; settings: mean of both orientations
T16 chain: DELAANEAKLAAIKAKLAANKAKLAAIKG

APC8910-AA = target: T17, APC8910-AA; settings: mean of both orientations
T17 chain: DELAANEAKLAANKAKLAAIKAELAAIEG

APC9096-AA = target: T18, APC9096-AA; settings: mean of both orientations
T18 chain: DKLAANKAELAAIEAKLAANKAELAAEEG

APC9319-AA = target: T19, APC9319-AA; settings: mean of both orientations
T19 chain: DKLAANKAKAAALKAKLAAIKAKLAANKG

4H2124-AA = target: T20, 4H2124-AA
T20 chain: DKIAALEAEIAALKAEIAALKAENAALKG

4H2165-AA = target: T21, 4H2165-AA; settings: mean of both orientations
T21 chain: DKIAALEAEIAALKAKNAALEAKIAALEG

4H2253-AA = target: T22, 4H2253-AA; settings: mean of both orientations
T22 chain: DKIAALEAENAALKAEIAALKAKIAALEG

4H2330-AA = target: T23, 4H2330-AA; settings: mean of both orientations
T23 chain: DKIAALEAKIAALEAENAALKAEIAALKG

4H2343-AA = target: T24, 4H2343-AA; settings: mean of both orientations
T24 chain: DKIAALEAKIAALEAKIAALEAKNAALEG

4H2466-AA = target: T25, 4H2466-AA; settings: mean of both orientations
T25 chain: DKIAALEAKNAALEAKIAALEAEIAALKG

4H249-AA = target: T26, 4H249-AA; settings: mean of both orientations
T26 chain: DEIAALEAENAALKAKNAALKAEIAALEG

4H2592-AA = target: T27, 4H2592-AA; settings: mean of both orientations
T27 chain: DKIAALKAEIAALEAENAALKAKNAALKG

4H2732-AA = target: T28, 4H2732-AA; settings: mean of both orientations
T28 chain: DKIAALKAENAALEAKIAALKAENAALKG

4H2774-AA = target: T29, 4H2774-AA; settings: mean of both orientations
T29 chain: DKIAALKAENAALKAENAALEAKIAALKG

4H2931-AA = target: T30, 4H2931-AA; settings: mean of both orientations
T30 chain: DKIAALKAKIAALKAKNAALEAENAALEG

4H3001-AA = target: T31, 4H3001-AA; settings: mean of both orientations
T31 chain: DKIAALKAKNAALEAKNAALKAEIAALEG

4H3015-AA = target: T32, 4H3015-AA
T32 chain: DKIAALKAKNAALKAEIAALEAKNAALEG

4H3073-AA = target: T33, 4H3073-AA
T33 chain: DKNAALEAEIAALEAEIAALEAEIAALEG

4H3438-AA = target: T34, 4H3438-AA; settings: mean of both orientations
T34 chain: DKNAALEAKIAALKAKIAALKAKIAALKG

4H347-AA = target: T35, 4H347-AA; settings: mean of both orientations
T35 chain: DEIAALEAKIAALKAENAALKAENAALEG

4H406-AA = target: T36, 4H406-AA; settings: mean of both orientations
T36 chain: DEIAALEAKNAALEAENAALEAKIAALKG

4H452-AA = target: T37, 4H452-AA; settings: mean of both orientations
T37 chain: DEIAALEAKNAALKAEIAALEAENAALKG

4H56-AA = target: T38, 4H56-AA; settings: mean of both orientations
T38 chain: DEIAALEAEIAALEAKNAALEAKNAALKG

4H_APH = target: T39, 4H_APH; settings: mean of both orientations
T39 chain: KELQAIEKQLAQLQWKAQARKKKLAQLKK

4H_BCR = target: T40, 4H_BCR; settings: mean of both orientations
T40 chain: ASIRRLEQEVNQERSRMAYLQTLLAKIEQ

4H_GCN4 = settings: mean of both orientations
GCN2_T = target: GCN2_T
4H1878-AA = target: T41, 4H1878-AA
T41 chain: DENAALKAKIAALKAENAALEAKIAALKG

4H235-AA = target: T42, 4H235-AA; settings: mean of both orientations
T42 chain: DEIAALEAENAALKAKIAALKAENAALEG

4H2580-AA = target: T43, 4H2580-AA; settings: mean of both orientations
T43 chain: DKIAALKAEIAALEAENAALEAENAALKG

4H2604-AA = target: T44, 4H2604-AA; settings: mean of both orientations
T44 chain: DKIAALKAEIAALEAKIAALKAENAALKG

4H2621-AA = target: T45, 4H2621-AA; settings: mean of both orientations
T45 chain: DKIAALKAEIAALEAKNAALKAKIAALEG

4H2760-AA = target: T46, 4H2760-AA; settings: mean of both orientations
T46 chain: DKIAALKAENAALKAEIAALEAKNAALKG

4H2903-AA = target: T47, 4H2903-AA; settings: mean of both orientations
T47 chain: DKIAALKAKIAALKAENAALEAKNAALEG

4H2947-AA = target: T48, 4H2947-AA; settings: mean of both orientations
T48 chain: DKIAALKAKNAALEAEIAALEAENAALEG

4H2961-AA = target: T49, 4H2961-AA; settings: mean of both orientations
T49 chain: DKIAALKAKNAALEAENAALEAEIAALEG

4H3049-AA = target: T50, 4H3049-AA; settings: mean of both orientations
T50 chain: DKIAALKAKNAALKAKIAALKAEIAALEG

4H3094-AA = target: T51, 4H3094-AA; settings: mean of both orientations
T51 chain: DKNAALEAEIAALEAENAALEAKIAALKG

4H324-AA = target: T52, 4H324-AA; settings: mean of both orientations
T52 chain: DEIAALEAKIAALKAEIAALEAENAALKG

4H341-AA = target: T53, 4H341-AA; settings: mean of both orientations
T53 chain: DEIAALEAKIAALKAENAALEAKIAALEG

4H3449-AA = target: T54, 4H3449-AA; settings: mean of both orientations
T54 chain: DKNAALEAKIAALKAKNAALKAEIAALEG

4H3619-AA = target: T55, 4H3619-AA; settings: mean of both orientations
T55 chain: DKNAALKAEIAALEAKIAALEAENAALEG

4H3629-AA = target: T56, 4H3629-AA; settings: mean of both orientations
T56 chain: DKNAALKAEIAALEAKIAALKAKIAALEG

4H3777-AA = target: T57, 4H3777-AA; settings: mean of both orientations
T57 chain: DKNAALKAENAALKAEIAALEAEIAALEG

4H380-AA = target: T58, 4H380-AA; settings: mean of both orientations
T58 chain: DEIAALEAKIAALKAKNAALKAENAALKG

4H3915-AA = target: T59, 4H3915-AA; settings: mean of both orientations
T59 chain: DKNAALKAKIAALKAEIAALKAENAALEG

4H3974-AA = target: T60, 4H3974-AA; settings: mean of both orientations
T60 chain: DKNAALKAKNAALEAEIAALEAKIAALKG

4H432-AA = target: T61, 4H432-AA; settings: mean of both orientations
T61 chain: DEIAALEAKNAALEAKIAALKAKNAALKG

4H446-AA = target: T62, 4H446-AA; settings: mean of both orientations
T62 chain: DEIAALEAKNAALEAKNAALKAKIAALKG

4H63-AA = target: T63, 4H63-AA; settings: mean of both orientations
T63 chain: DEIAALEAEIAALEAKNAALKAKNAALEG

4H_GCN4, sequence (chain, as listed by the source): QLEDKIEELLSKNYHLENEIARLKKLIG

- interaction score (4H716-AA): 1.49
- interaction score (4H733-AA): -1.28
- interaction score (4H807-AA): -1.6
- interaction score (APC1015-AA): -1.65
- interaction score (APC1434-AA): -1.53
- interaction score (APC2237-AA): -1.74
- interaction score (APC232-AA): -1.48
- interaction score (APC2405-AA): -1
- interaction score (APC3645-AA): -1.45
- interaction score (APC4011-AA): -1.44
- interaction score (APC4264-AA): -1.35
- interaction score (APC4436-AA): -1.65
- interaction score (APC5383-AA): -1.79
- interaction score (APC6108-AA): -1.47
- interaction score (APC7099-AA): -1.6
- interaction score (APC8191-AA): -1.36
- interaction score (APC8910-AA): -1.89
- interaction score (APC9096-AA): -1.43
- interaction score (APC9319-AA): -1.79
Binder: DEIAALKAENAALKAEIAALKAENAALKG [4H716-AA]

- interaction score (4H2124-AA): 1.61
- interaction score (4H2165-AA): -1.36
- interaction score (4H2253-AA): -1.14
- interaction score (4H2330-AA): -1.05
- interaction score (4H2343-AA): -0.871
- interaction score (4H2466-AA): -1.16
- interaction score (4H249-AA): -1.78
- interaction score (4H2592-AA): -0.666
- interaction score (4H2732-AA): -1.2
- interaction score (4H2774-AA): -1.38
- interaction score (4H2931-AA): -1.45
- interaction score (4H3001-AA): -1.89
- interaction score (4H3015-AA): -1.19
- interaction score (4H3073-AA): 1.36
- interaction score (4H3438-AA): -0.0325
- interaction score (4H347-AA): -1.2
- interaction score (4H406-AA): -1.71
- interaction score (4H452-AA): -1.95
- interaction score (4H56-AA): -1.73
- interaction score (4H_APH): -1.67
- interaction score (4H_BCR): -2.09
- interaction score (4H_GCN4): -1.93
- interaction score (GCN2_T): -1.07
Binder: DKIAALEAEIAALKAEIAALKAENAALKG [4H2124-AA]

- interaction score (4H1878-AA): 0.691
- interaction score (4H235-AA): 0.899
- interaction score (4H249-AA): 1.34
- interaction score (4H2580-AA): -0.744
- interaction score (4H2604-AA): -0.964
- interaction score (4H2621-AA): 2.05
- interaction score (4H2760-AA): 1.48
- interaction score (4H2774-AA): -1.27
- interaction score (4H2903-AA): -0.956
- interaction score (4H2947-AA): -0.843
- interaction score (4H2961-AA): -1.54
- interaction score (4H3049-AA): -0.448
- interaction score (4H3094-AA): 1.41
- interaction score (4H324-AA): 0.44
- interaction score (4H341-AA): 0.00503
- interaction score (4H3449-AA): 1.63
- interaction score (4H3619-AA): -0.661
- interaction score (4H3629-AA): 1.63
- interaction score (4H3777-AA): -1.54
- interaction score (4H380-AA): -0.854
- interaction score (4H3915-AA): -1.7
- interaction score (4H3974-AA): -1.23
- interaction score (4H432-AA): -0.557
- interaction score (4H446-AA): -1.08
- interaction score (4H63-AA): 1.51
Binder: DENAALKAKIAALKAENAALEAKIAALKG [4H1878-AA]
